Measured values published in the supplement of paper PMC10567573.

B1: SPATS1 (parent)
chain: GRKKYDIDPRNGIPKLTPGDNPYM

Variants of: B1
Experiment: protein stability index of a GFP-peptide fusion (GPS, HEK-293T) (PSI 1-6); higher = more stable
Conditions: c terminus: a fixed tail appended
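Note: lentivirally expressed fusions sorted by FACS into six bins by GFP to DsRed ratio, PSI derived from sequencing read proportions per bin multiplied by bin number.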

| Variant | protein stability index |
| --- | --- |
| P18F | 1.9 |
| P18H | 3.42 |
| P18N | 4.09 |
| P18C | 3.38 |
| P18V | 3.34 |
| P18D | 3.82 |
| P18S | 3.55 |
| P18A | 3.86 |
| P18Q | 3.86 |
| P18I | 3.27 |
| P9Y | 2.99 |
| P9L | 3.24 |
| P9D | 3.99 |
| P9E | 4.19 |
| P9G | 3.52 |
| P9T | 3.62 |
| P9R | 3.74 |
| P9N | 3.49 |
| P9F | 2.8 |
| P9V | 3.36 |
| P9H | 3.79 |
| P9K | 3.27 |
| P9S | 3.85 |
| P9I | 3.69 |

| Variant | protein stability index |
| --- | --- |
| I7A | 3.53 |
| I7T | 3.75 |
| I7L | 3.39 |
| I7M | 2.98 |
| I7V | 3.83 |
| I7C | 3.93 |
| I7W | 2.91 |
| I7H | 3.81 |
| I7R | 4.22 |
| I7Y | 3.45 |
| I7D | 4.21 |
| I7G | 4.08 |
| I7F | 3.11 |
| I7K | 4.19 |
| R2V | 3.73 |
| R2N | 3.44 |
| R2A | 3.51 |
| R2S | 3.66 |
| R2C | 3.3 |
| R2K | 3.61 |
| R2G | 3.39 |
| R2L | 3.12 |
| R2D | 4.13 |
| R2I | 3.25 |

| Variant | protein stability index |
| --- | --- |
| Y5P | 3.38 |
| Y5V | 4.04 |
| Y5H | 3.88 |
| Y5F | 3.51 |
| Y5M | 3.65 |
| Y5Q | 4.27 |
| Y5C | 4.08 |
| Y5D | 4.64 |
| Y5L | 4.43 |
| Y5R | 4.07 |
| Y5A | 4.14 |
| Y5S | 4.36 |
| Y5W | 2.92 |
| Y5K | 4.23 |
| Y5T | 4.11 |
| Y5N | 3.93 |
| K15Y | 2.96 |
| K15L | 3.29 |
| K15G | 2.81 |
| K15A | 3.64 |
| K15W | 1.98 |
| K15F | 2.97 |
| K15C | 3.04 |
| K15T | 3.78 |

| Variant | protein stability index |
| --- | --- |
| K15Q | 4.05 |
| K15S | 3.69 |
| K15M | 3.69 |
| K15E | 4.33 |
| K15R | 3.63 |
| K15N | 3.49 |
| K15I | 3.69 |
| K15H | 3.55 |
| K15P | 3.62 |
| N21R | 3.41 |
| N21V | 3.14 |
| N21S | 3.72 |
| N21Q | 3.67 |
| N21F | 2.78 |
| N21I | 3.5 |
| N21T | 3.46 |
| N21A | 3.84 |
| N21G | 3.96 |
| N21E | 4.6 |
| N21Y | 3.06 |
| N21K | 3.51 |
| N21C | 3.34 |
| N21H | 3.33 |
| N21W | 2.63 |

| Variant | protein stability index |
| --- | --- |
| N21L | 2.88 |
| N21D | 4.23 |
| N21M | 3.32 |
| D6I | 2.57 |
| D6H | 3.35 |
| D6Y | 3.12 |
| D6E | 3.4 |
| D6M | 3.01 |
| D6L | 2.84 |
| D6R | 3.11 |
| D6V | 2.52 |
| D6N | 3.36 |
| D6F | 2.51 |
| D6W | 2.38 |
| D6A | 3.26 |
| D6S | 3.4 |
| D6C | 2.89 |
| N11Y | 4.13 |
| N11L | 3.06 |
| N11Q | 3.41 |
| N11W | 2.48 |
| N11H | 3.54 |
| N11C | 2.77 |
| N11M | 3.17 |

| Variant | protein stability index |
| --- | --- |
| N11K | 3.59 |
| N11A | 3.05 |
| N11F | 3.34 |
| Y23H | 3.93 |
| Y23L | 4.48 |
| Y23D | 4.84 |
| Y23V | 4.18 |
| Y23I | 3.72 |
| Y23F | 3.37 |
| Y23K | 4.41 |
| Y23T | 4.6 |
| Y23E | 4.61 |
| Y23R | 4.34 |
| Y23W | 3.05 |
| Y23S | 3.94 |
| Y23A | 4.3 |
| Y23P | 4.41 |
| Y23G | 4.04 |
| T17I | 3.19 |
| T17H | 3.34 |
| T17N | 3.48 |
| T17S | 4.08 |
| T17W | 2.47 |
| T17Y | 2.89 |

| Variant | protein stability index |
| --- | --- |
| T17D | 3.32 |
| T17K | 3.57 |
| T17Q | 4.21 |
| T17P | 3.23 |
| T17A | 3.58 |
| T17E | 4.33 |
| G1Q | 3.52 |
| G1D | 3.85 |
| G1T | 3.4 |
| G1P | 3.51 |
| G1S | 3.65 |
| G1E | 3.96 |
| G1V | 3.68 |
| G1H | 3.25 |
| G1I | 2.66 |
| G1K | 3.25 |
| G1Y | 3.31 |
| G1A | 3.48 |
| G1N | 3.54 |
| G1L | 2.96 |
| G19F | 2.63 |
| G19W | 2.3 |
| G19V | 2.88 |
| G19E | 4.69 |

| Variant | protein stability index |
| --- | --- |
| G19H | 3.34 |
| G19A | 3.32 |
| G19N | 3.76 |
| G19C | 3.21 |
| G19L | 3.44 |
| G19D | 3.83 |
| G19I | 3.28 |
| G19T | 3.59 |
| G19K | 3.31 |
| G19Q | 3.35 |
| G19P | 3.73 |
| G19R | 3.35 |
| K3G | 3.53 |
| K3T | 3.73 |
| K3D | 4.24 |
| K3V | 3.67 |
| K3E | 3.79 |
| K3L | 3.19 |
| K3A | 3.2 |
| K3I | 3.39 |
| K3N | 3.32 |
| K3Q | 3.8 |
| K3W | 2.91 |
| K3C | 2.29 |

| Variant | protein stability index |
| --- | --- |
| K3H | 3.67 |
| K3Y | 2.77 |
| K3R | 3.27 |
| R10G | 3.68 |
| R10W | 2.56 |
| R10Y | 3.1 |
| R10D | 4.41 |
| R10A | 3.48 |
| R10S | 3.65 |
| R10N | 3.23 |
| R10I | 3.57 |
| R10Q | 4.14 |
| R10H | 3.4 |
| R10T | 3.81 |
| R10K | 3.92 |
| R10F | 2.7 |
| R10M | 3.03 |
| R10E | 4.19 |
| R10P | 3.29 |
| R10V | 2.8 |
| L16P | 3.67 |
| L16A | 4.09 |
| L16W | 2.67 |
| L16Q | 4.08 |

| Variant | protein stability index |
| --- | --- |
| L16C | 3.44 |
| L16F | 3.11 |
| L16V | 4 |
| L16H | 3.75 |
| L16Y | 3.22 |
| L16D | 4.11 |
| L16K | 3.53 |
| L16S | 3.67 |
| L16M | 3.67 |
| L16R | 3.59 |
| P14Q | 3.42 |
| P14I | 2.96 |
| P14G | 3.38 |
| P14V | 3.36 |
| P14Y | 3.03 |
| P14T | 3.27 |
| P14A | 3.52 |
| P14H | 3.51 |
| P14S | 3.3 |
| P14W | 2.9 |
| P14L | 2.94 |
| P14K | 3.44 |
| P14N | 3.55 |
| P14D | 3.66 |

| Variant | protein stability index |
| --- | --- |
| P22L | 3.31 |
| P22T | 4.01 |
| P22Y | 3.44 |
| P22N | 3.64 |
| P22R | 4.22 |
| P22W | 2.62 |
| P22C | 3.34 |
| P22Q | 3.98 |
| P22I | 3.64 |
| P22V | 3.42 |
| P22G | 3.53 |
| P22D | 3.91 |
| D20H | 3.06 |
| D20R | 3.74 |
| D20N | 3.12 |
| D20A | 3.58 |
| D20Q | 3.36 |
| D20C | 3.47 |
| D20L | 2.71 |
| D20S | 3.79 |
| D20Y | 2.49 |
| D20K | 3.74 |
| D20T | 3.12 |
| D20G | 3.3 |

| Variant | protein stability index |
| --- | --- |
| D20I | 2.18 |
| D20V | 3.37 |
| D20M | 2.46 |
| D20W | 2.41 |
| K4N | 3.88 |
| K4C | 2.81 |
| K4M | 3.5 |
| K4L | 2.91 |
| K4Q | 3.23 |
| K4A | 3.38 |
| K4P | 3.52 |
| K4F | 2.62 |
| K4S | 3.83 |
| K4E | 4.1 |
| K4Y | 3.22 |
| K4D | 3.83 |
| K4I | 3.33 |
| D8K | 3.14 |
| D8I | 3.08 |
| D8E | 3.72 |
| D8W | 2.68 |
| D8A | 3.02 |
| D8V | 3.08 |
| D8S | 3.33 |

| Variant | protein stability index |
| --- | --- |
| D8M | 3.18 |
| D8N | 3.12 |
| D8L | 3.16 |
| D8C | 3.1 |
| D8T | 3.56 |
| G12Y | 2.8 |
| G12H | 3.32 |
| G12C | 2.48 |
| G12M | 3.08 |
| G12D | 3.3 |
| G12W | 2.83 |
| G12I | 2.77 |
| G12A | 3.66 |
| G12S | 3.57 |
| G12Q | 3.72 |
| G12F | 3.34 |
| G12V | 3.46 |
| M24S | 4.21 |
| M24W | 3.53 |
| M24C | 3.73 |
| M24N | 4.11 |
| M24V | 4.22 |
| M24E | 4.56 |
| M24A | 4.21 |

| Variant | protein stability index |
| --- | --- |
| M24G | 3.5 |
| M24Y | 3.73 |
| M24Q | 4.02 |
| M24L | 3.62 |
| M24H | 3.76 |
| M24K | 4.03 |
| M24D | 4.4 |
| M24P | 3.98 |
| I13C | 3.82 |
| I13K | 3.9 |
| I13L | 3.64 |
| I13S | 3.88 |
| I13T | 3.72 |
| I13H | 4.04 |
| I13V | 3.82 |
| I13G | 3.78 |
| I13F | 3.99 |
| I13Y | 2.81 |
| I13N | 4.1 |
| I13P | 3.86 |
| I13E | 4.45 |
| I13M | 3.36 |
